The source of these data is US20060239990A1, “Protein Arginine N-Methyltransferase 2 (PRMT-2)” (priority 2003, published 2006).

In experiment [1] the test system is NF-κB. Put plainly: NF-κB luciferase reporter assay in 293T cells. Format: cell-based, human. As to the method:
Cell culture, transfection, and reporter gene assays. The E1A-transformed, human kidney cell line, 293, and NIH-3T3 cells were maintained in Dulbecco's Modified Eagle Medium (DMEM) supplemented with 10% fetal calf serum and penicillin-streptomycin at 37° C. in 5% carbon dioxide in tissue culture grade Petri dishes. PRMT-2−/− mouse embryo fibroblasts (MEFs) and wild type MEFs were prepared from day 13.5 embryos and maintained in DMEM supplemented with 10% fetal calf serum. MEFs at passage 4 were used in this experiment. Lipofectamine Plus™ reagent (Boehringer Mannheim) was used to transfect both 293 and NIH-3T3 cells according to directions from the manufacturer. […] TNF-α stimulation of cells was done using recombinant TNF-α (200 U/ml) for 12 hours. […] CAT assays were performed essentially as described in Leung, K. & Nabel, G. J. Nature 333, 776-778 (1988). To analyze the κB-reporter activity in MEFs, cells were transfected with the reporter (2×kB-Luc) and PRL-TK vector (Promega) using FuGENE6 transfection reagent (Roche). Luciferase activity was analyzed by Dual-Luciferase Reporter Assay System (Promega).
To map the domains responsible for inhibition of HIV transcription, truncation and point mutations were made in PRMT2 (FIG. 1D) and co-transfected with an NF-κB reporter in 293T cells. PRMT2-A represents an alternatively spliced form of PRMT2 found in the expressed sequence tag (EST) database. This isoform contains the first 218 amino acids of PRMT2 and differs from full length PRMT2 by the absence of the less conserved COOH-terminal domain. PRMT2-N was generated by introducing a stop codon after amino acid 95 before the putative Ado-Met domain of PRMT2. To analyze the role of the Ado-Met domain further, another mutant, PRMT2-4A, was prepared in which 141ILDV144 (SEQ ID NO:5) in this region were altered to four consecutive alanines to compare the effects of point mutations in this highly conserved region.
The mechanism and site of action of PRMT2 in the NF-κB signaling pathway was further defined by co-transfection of PRMT2 and its mutants with different regulators in this pathway with an NF-κB reporter in 293T cells (FIG. 2D).

Experiment [2] relates to NF-κB. The experiment can be described thus: κB luciferase reporter in MEFs. Conditions: PRMT2−/− MEFs complemented by transfection. Format: cell-based, mouse. As to the method: Cell culture, transfection, and reporter gene assays. The E1A-transformed, human kidney cell line, 293, and NIH-3T3 cells were maintained in Dulbecco's Modified Eagle Medium (DMEM) supplemented with 10% fetal calf serum and penicillin-streptomycin at 37° C. in 5% carbon dioxide in tissue culture grade Petri dishes. PRMT-2−/− mouse embryo fibroblasts (MEFs) and wild type MEFs were prepared from day 13.5 embryos and maintained in DMEM supplemented with 10% fetal calf serum. MEFs at passage 4 were used in this experiment. Lipofectamine Plus™ reagent (Boehringer Mannheim) was used to transfect both 293 and NIH-3T3 cells according to directions from the manufacturer. […] TNF-α stimulation of cells was done using recombinant TNF-α (200 U/ml) for 12 hours. Transfected cells were harvested at 36 hours, and CAT activity was assayed on 10 to 100 μg of protein from whole cell extracts. CAT assays were performed essentially as described in Leung, K. & Nabel, G. J. Nature 333, 776-778 (1988). […] Luciferase activity was analyzed by Dual-Luciferase Reporter Assay System (Promega).
To determine whether similar effects would be observed in non-transformed cell lines with physiological levels of protein, NF-κB inducibility was analyzed in mouse embryonic fibroblasts (MEFs) derived from PRMT2 null mice (T. Y. et al., manuscript in preparation). […]

B1: PRMT2: human PRMT-2 polypeptide, SEQ ID NO:2, expressed from pVR1012 vector with HA-tag (protein, listed as Homo sapiens)
chain: MATSGDCPRSESQGEEPAECSEAGLLQEGVQPEEFVAIADYAATDETQLSFLRGEKILILRQTTADWWWGERAGCCGYIPANHVGKHVDEYDPEDTWQDEEYFGSYGTLKLHLEMLADQPRTTKYHSVILQNKESLTDKVILDVGCGTGIISLFCAHYARPRAVYAVEASEMAQHTGQLVLQNGFADIITVYQQKVEDVVLPEKVDVLVSEWMGTCLLFEFMIESILYARDAWLKEDGVIWPTMAALHLVPCSADKDYRSKVLFWDNAYEFNLSALKSLAVKEFFSKPKYNHILKPEDCLSEPCTILQLDMRTVQISDLETLRGELRFDIRKAGTLHGFTAWFSVHFQSLQEGQPPQVLSTGPFHPTTHWKQTLFMMDDPVPVHTGDVVTGSVVLQRNPVWRRHMSVALSWAVTSRQDPTSQKVGEKVFPIWR
modifications: HA tag
With B1, the NF-κB activity entry in the experiment on NF-κB [1] (1 μg expression construct, 100 ng 5 κB luciferase reporter) is “inhibited NF-κB activity”. The “IKK2- and p65-induced NF-κB activity” value in the experiment on NF-κB [1] (κB luciferase reporter, 48 hrs) was “inhibited both IKK2- and p65-induced NF-κB activity”. The “NF-κB induction by TNF-α” value with NF-κB [2] was “completely abolished NF-κB induction by TNF-α”.
